This note sets out measurements from patent publication US20220034883A1 (SYSMEX, published 2022).

The target of this test is T1, His-tagged recombinant N protein of SARS-CoV (SARS-CoV, UniProt P59595 1-422).
T1 construct: mature
Kind of test: ELISA screening of hybridomas. In general terms: An ELISA detects its analyte on a solid surface through an enzyme-linked reagent.

T1 sequence (P59595 1-422, tags left off): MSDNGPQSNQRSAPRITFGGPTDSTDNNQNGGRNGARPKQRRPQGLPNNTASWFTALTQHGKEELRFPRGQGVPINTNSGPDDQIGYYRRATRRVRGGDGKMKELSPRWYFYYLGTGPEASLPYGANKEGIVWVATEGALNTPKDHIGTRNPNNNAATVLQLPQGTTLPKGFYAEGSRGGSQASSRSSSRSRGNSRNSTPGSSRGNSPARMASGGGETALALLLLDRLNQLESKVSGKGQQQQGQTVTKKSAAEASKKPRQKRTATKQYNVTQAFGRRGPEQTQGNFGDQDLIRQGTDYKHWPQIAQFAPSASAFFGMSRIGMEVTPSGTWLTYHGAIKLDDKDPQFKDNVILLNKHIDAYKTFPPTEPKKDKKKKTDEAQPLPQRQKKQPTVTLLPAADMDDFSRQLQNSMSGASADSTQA

B1: first antibody (monoclonal antibody purified from the culture supernatant of the hybridoma of Clone 1) (antibody, V domains shown)
VH: QVTLKESGPGILQPSQTLSLTCSFSGFSLSTSGTGVSWIRQPSGKGLEWLAHIYWDDDKRYNPSLKSRLTVSKDTSGNQVFLKITSVDTADTATYYCARSNYGYDLDYWGQGTTLTVSS
VL: DIVMTQSQKFMSTSVGDRVSVTCKASQNVGTNVVWYQQKPGQSPKALIYSASYRYSGVPDRFTGSGSGTDFTLTISNVQSEDLAEYFCQQYNNYPLTFGSGTKLEIKR
notes: also called capture antibody
Regarding B1, the binding result was “binds”.
